Source: publication PMC3050068

Columns and labels:
[1] = test system: O=C(O)[C@H]1O[C@H](OP(=O)(O)OP(=O)(O)OC[C@H]2O[C@@H](n3ccc(=O)[nH]c3=O)[C@H](O)[C@@H]2O)[C@H](O)[C@@H](O)[C@@H]1O; test: purified protein; conditions: NAD+ as co-substrate, pH 8.5, 25°C, without WlbC
[2] = test system: O=C(O)[C@H]1O[C@H](OP(=O)(O)OP(=O)(O)OC[C@H]2O[C@@H](n3ccc(=O)[nH]c3=O)[C@H](O)[C@@H]2O)[C@H](O)[C@@H](O)[C@@H]1O; test: purified protein; assay type: biochemical, Chromobacterium violaceum; conditions: NAD+ as co-substrate, pH 8.5 (50 mM HEPPS), 25°C, without WlbC
[3] = target: WlbA from Chromobacterium violaceum (Chromobacterium violaceum); test: AUC
[4] = target: WlbA from Chromobacterium violaceum (Chromobacterium violaceum); test: crystal structure

Substance: B. pertussis WlbA (Bordetella pertussis Tohama I)
- Km [1]: 2050 ± 210 µM
- kcat [1]: 0.0021 ± 0.0001 s⁻¹
- kcat/Km [1]: 1 M⁻¹ s⁻¹

Substance: C. violaceum WlbA (Chromobacterium violaceum ATCC 12472)
- Km [2]: 200 ± 20 µM
- kcat [2]: 0.00015 ± 0.00001 s⁻¹
- kcat/Km [2]: 0.75 M⁻¹ s⁻¹

Substance: WlbA from Chromobacterium violaceum (enzyme)
- stoichiometry N [3]: 8
- stoichiometry N [4]: 8
